Measurements reported in paper PMC3535375.

Experiments:
kallikrein 2 (KLK2) = kallikrein 2 (KLK2) (UniProt P20151)
[1] = target: recombinant soluble murine proADAM10 (truncated, lacking the signal peptide and the regions C-terminal of the protease domain) (murine); assay: SDS-PAGE with western blot + MALDI-TOF; purified recombinant proADAM10; anti-His-tag western blot and MALDI-TOF; a 100-kDa species called the proADAM10 dimer

Chain of UniProt P20151 (P20151 19-261): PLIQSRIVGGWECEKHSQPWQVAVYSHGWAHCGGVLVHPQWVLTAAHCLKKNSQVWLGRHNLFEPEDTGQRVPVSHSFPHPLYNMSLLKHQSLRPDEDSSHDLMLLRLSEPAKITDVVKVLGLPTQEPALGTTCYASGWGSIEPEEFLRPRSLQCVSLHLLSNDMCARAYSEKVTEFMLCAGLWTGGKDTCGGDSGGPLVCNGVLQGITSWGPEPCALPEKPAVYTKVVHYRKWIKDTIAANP

KLK2 proteolytic activity (Z-Pyr-G-R-AMC) after incubation with meprin β-cleaved LEKTI 9–15, relative to uncleaved LEKTI 9–15 (kallikrein 2 (KLK2)) | stoichiometry N [1] | Substance
20% | – | meprin β-cleaved LEKTI 9–14 (domain or fragment)
– | 2 | recombinant soluble murine proADAM10 (truncated, lacking the signal peptide and the regions C-terminal of the protease domain) (domain or fragment)
